Molecular target: mouse full-length TrkB (TrkB.FL) (mouse)
Assay: cell-based or functional assay

“BDNF (brain derived neurotrophic factor), supplied by Regeneron Pharmaceuticals (from UniProt P23560 129-247) (ligand)” gave a TrkB phosphorylation in Ts16 neurons against euploid neurons of 33 % less and a neuron survival 36 hours after B27 withdrawal of 65%.
